Reference: the nanobody polyreactivity screen of Harvey et al. (2022)

Assay: yeast display, Sf9 membrane polyspecificity reagent, FACS + sequencing; frameworks hold sequencing errors
Summary of the method: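 Galactose-induced (36–48 hours) yeast carrying a synthetic nanobody display library were exposed to 10% biotinylated, detergent-solubilized Sf9 membrane reagent at 4 °C for 1 hour. FACS followed streptavidin microbead enrichment, using low and high (top ~1%) gates for expression (anti-HA) and reagent binding (streptavidin). Colony PCR, MiSeq 2 × 250 sequencing and CDR-length filtering followed. Labels for polyreactivity reflect the gate of origin.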

Row | Sequence | polyreactivity (PSR sort gate)
1 | QVQLVESGGGLVQAGGRLRLSCAASGRTFFGYAMGWYRQAPGKERELVAAITSSGGRTYYADSVKGRFTISRDNAKNTVYLQMNSLKPEDTAVYYCNTVLSFRSVNIYRGRGDYWGQGTQVTVSS | high polyreactivity
2 | QVQLVESGGGLVQAGGRLRLSCAASGRTFGINAMGWYRQEPGKERELVASISSGGRTNYADSVKGRFTISRHNAKNTVYLQMNSLKPEDTAVYYCARSRLGRAYGRYDYWGQGTQVTVSS | low polyreactivity
3 | QVQLVESGGGLVQAGGRLRLSCAASGRTFGQNAMGWYRQAPGKERELVAVISSRGGSTYYADSVKGRFTISRDNAKNTVYLQMNSLKPEDTAVYYCAKARRKPGAVDYWGQGTQVTVSS | high polyreactivity
4 | QVQLVESGGGLVQAGGRLRLSCAASGRTFLVNAMGWYRQAPGKERELVAAISQRGGSTDYADSVKGRFTISRDNAKNTVYLQMNSLKPEDTAVYYCAVRWGYLYDYWGQVTQVTVSS | low polyreactivity
5 | QVQLVESGGGLVQAGGRLRLSCAASGRTFRGNVMGWYRQAPGKEREFVAAITKSDGSTYYADSVKGRFTISRDNAKNTVYLQMNSLKPEDTAVYYCAARTGRTGWPWFRYDYWGQGTQVTVSS | low polyreactivity
6 | QVQLVESGGGLVQAGGRLRLSCAASGRTFRWYAMGRYRQAPGKERELVADISSVGSTDYADSVKGRFTISRDNAKNTVYLQMNSLKPEDTAVYFCAADFSPRRYHNLSFGYWGQGTQVTVSS | low polyreactivity
7 | QVQLVESGGGLVQAGGRLRLSCAASGRTFSNYAKGWYRQAPGKEREFVAGIRYNGGSTYYADSVKGRFTISRDNAKNTVYLQMKSLKPEDTAVYYCAARYSRSMDYWGQGTQVTVSS | high polyreactivity
8 | QVQLVESGGGLVQAGGRLRLSCAASGRTFYGYAMGWYRQAPGKERELVASISRDGSTNYADSVNGRFTISRDNAKNTVYLQMHSLKPEDTAVYYCAADIWYYRYPIYYYSYDYWGPGTQVTVSS | low polyreactivity
9 | QVQLVESGGGLVQAGGRLRLSCAASGRTFYVYTMGWYRQAPGPERELVAAIPSGGSTNYADSVKGRFTISRDNAKKTVYLQMNSLKPEDTAVYYCAARDSTVFKRYYYWGQGTQVTVSS | high polyreactivity
10 | QVQLVESGGGLVQAGGRLRLSCAASGRTFYYNGMGWYRQAPGKERELVAAITSGGTTSYADSVKGRFTISRDNAKNTVYLQMNSLKPEDTAVYYCNADYWAVNYDYWGQGTQVTVSS | low polyreactivity
11 | QVQLVESGGGLVQAGGRLRLSCAASGRTLGVYTMGWYRQAPGKERELVATISYNGGSTYYADSVKGRFTISRDNAKNTVYLQMNSLKPEDTAVYYCAKAYDTTLTYNYWGQGTQVTVSS | low polyreactivity
12 | QVQLVESGGGLVQAGGRLRLSCAASGSIFDRNAMGLYRQAPGKESELVATITWYGVSTYYADSVKGRFTISRDNAKNTVYLQMNSLKPEDTAVYYCNADYSYRHWYDPGHYGEAMGYWGQGTQVTVSS | low polyreactivity
13 | QVQLVESGGGLVQAGGRLRLSCAASGSIFFHYAMGWYRQAPGKERERVAAITWDGGSTYYADSVKGRFTISRDNAKNTVYLQMNSLKPEDTAVYYCNADQDLSTDEDEYWGQGTQVTVLS | low polyreactivity
14 | QVQLVESGGGLVQAGGRLRLSCAASGSIFGVYDMGWYRQAPGKERELVAVINSNGGSTYYADSVKGRFTISRDNAKNTVYLQMNSLKPEDTAVYYCAAERATVKFGYWGQGTQVTVSS | low polyreactivity
15 | QVQLVESGGGLVQAGGRLRLSCAASGSIFRRYAMGWYRQAPGKERELVAAISSTPITYYADSVKGRFTISRDNAKNTVYLQMNSLKPEDTAVYYCAAELLLSYYYGLEDDYWGQGTQVTVSS | low polyreactivity
16 | QVQLVESGGGLVQAGGRLRLSCAASGSIFRSNVMGWYIQAPGKEREMVASITSGGITYADSVNGRFTISRDNAQNTVYLQMNSLKPEDTAVYYCDTVRRYAMSPYKGRYDYWGQGTQVTVSS | low polyreactivity
17 | QVQLVESGGGLVQAGGRLRLSCAASGSIFSHNVMGWYRQAPGKEGELVAAITYRGGSTYYADSVKGRFTISRDNAKNTVYLQMNSLKPEDTAVYYCSALNEVSTYHGFDYWGQGTQVTVSS | low polyreactivity
18 | QVQLVESGGGLVQAGGRLRLSCAASGSIFSYYAMGWYRQAPGKERELVAAITANGGSTYYADSVKGRFTISRDNAKNTVYLQMNSLKPADTAVYYCAADYYWGYDCGQGTQVTVSS | low polyreactivity
19 | QVQLVESGGGLVQAGGRLRLSCAASGSIFTYNAMGWYIQAPGKERELVAAISASGGRTYYADSVKGRFTISRDNAKNTVYLQMNILKPEDTAVYYCAARIRVSGLRRFDYWGQGTQVTVSS | high polyreactivity
20 | QVQLVESGGGLVQAGGRLRLSCAASGSIFVIYGMGWYRQAPGKERELVAAISDRGGSTYYADSVKGRFTISRDNAKNTVYLQMNSLKPEDTAVYYCAADRQYRYATRYDYWGQGTQVTVSS | low polyreactivity
21 | QVQLVESGGGLVQAGGRLRLSCAASGSIFYHYAMGWSRQAPGKERELVAAISQSGGGTYYADSVKGRFTISRDYAKNTVYLQMNSLKPEDTAVYYCAADRTGPYDYWGQGTQVTVSS | high polyreactivity
22 | QVQLVESGGGLVQAGGRLRLSCAASGSIIHYYTMGWSRQAPGKERELVAAINWSGTRTYYADSVKGRFTISRDNAKNTVYLQMNSLKPEDTAVYYCAAESYYPAGIRVYWGQGTQVTVSS | high polyreactivity

Row | Sequence | polyreactivity (PSR sort gate)
23 | QVQLVESGGGLVQAGGRLRLSCAASGSILGAYTMGWYRQAPGKERELVAAITRRGGSTYYSDSVKGRFTISRDNAKNTVYLQMNSLKPEDTAVYYCNAEYGVWYDYLVGPYDYWGQGNQVTVSS | low polyreactivity
24 | QVQLVESGGGLVQAGGRLRLSCAASGSTFGGNAMGWSRQAPGKERELVATISNSGGRTYYADSVKGRFTISRDNAKNTVYLQMNSLKPEDTAVYYCAADHPAFGPGYSFDYWGQGTQVTVSS | low polyreactivity
25 | QVQLVESGGGLVQAGGRLRLSCAASGSTFGLNAMGWYRQAPGTERELVAAITSRGTRTYYADSVKGRFTISRDNAKNTVYLQMNSLKTEDTAGYKCAKDSGATRYGEYDYWGQGTQVTVSS | low polyreactivity
26 | QVQLVESGGGLVQAGGRLRLSCAASGSTFLSNDMGWYRQAPGKERELVAAISQSGGNTYYADSVKGRFTISRDKAKNTVYLQMNSVKPEDTAVYYWAALDYWVQGTQVTVSS | low polyreactivity
27 | QVQLVESGGGLVQAGGRLRLSCAASGSTFVLNDRGWYRQPPGKEREFVAAIDTSGGTTSYADSVKGRFTISRDNAKNTVYLQMNSLKPEDTAVYYCAALWFTRVHLFDSWGQGPQVTVSS | low polyreactivity
28 | QVQLVESGGGLVQAGGRLRLSCAASGSTIKFNAMGWYRQAPGKERELVAAISRGGRTNYADSVKGRFTISRDNAKYTVYLQMNSLKPEDTAVYKCAKDVAGLFHVGALYYYWGQGTQVTVSS | low polyreactivity
29 | QVQLVESGGGLVQAGGRLRLSCAASGSTIPPSAMGWYRQSPGKERELVAAITSGGSTYYADSVKGRLTISRDNAKNTVYIQLNSLKPEDTAVYYCNADQQTIRSAKNDYWGQGTQVTVSS | low polyreactivity
30 | QVQLVESGGGLVQAGGRLRLSCAASGSTITYYTMGWYRQAPGKERELVAAISGSGGRTYYADSVKGRFTISRDNAKNTVYLQMNSLKPEDTAVYYCAAVYQLSRYDYWGQGTQVTVSS | high polyreactivity
31 | QVQLVESGGGLVQAGGRLRLSCAASGSTLSLYDMGRYRQAPGKERELVAAITSSGGTYYADSVKGRFTISRDNAKNTVFLQMKSLKPEDTAVYYCNAYAKDARSYGFHRVNYWGQGTQVTVSS | high polyreactivity
32 | QVQLVESGGGLVQAGGRLRLSCAASGSTNYRYAMRWYRQAPGKERELVATISRTGARTNYADSVKGRFTISRDNAKNTVYLQMNSLKPEDTAVYYCAASAPYIYYWGQGTQVTVSS | high polyreactivity
33 | QVQLVESGGGLVQAGGRLRLSCAASGSTSTLYAMGWYRQAPGKERELVAAISKSGGRTYYADSVKGRFTSSRDNAKNTVDLQMNSLKPEDTAVYYCAALAVYPRRFDYWGQGTQVTVSS | high polyreactivity
34 | QVQLVESGGGLVQAGGRLRLSCAASGYIFKNYAMGWDRQAPGKERELVATINYSGGGTYYADSVKGRFTISRDNAKNTVYLQMNSLKQEDTAVYYCAAREKYISYSYYYWGQGTQVTVSS | high polyreactivity
35 | QVQLVESGGGLVQAGGRLRLSCAASVGIFYYYAMGWYRQAPGKERELVATITYTGGSTYADSVKGRFTISRDNAKNTVYLQMNSLKPEDTAVYYCAADGRSRSYYGYDHWGQGTQVTVSS | low polyreactivity
36 | QVQLVESGGGLVQAGGRLRLSCAASVRTFYYYVMGWYRQEPGNERELVAAISSGGSTYYADSVKGRFTISRDNAKNTVYLQMNSLKPEDTAVYYGAATKRYRDSYDYDYWGQGTQVTVSS | high polyreactivity
37 | QVQLVESGGGLVQAGGRLRLSCAAYGSIFDFYAMGWYRQAPGKERELVAAISGSGGSTYYADSVKGRFTISRDNAKNTVYLQMNSLKPEDTEVYYCSYYYWGQGTQETVSS | low polyreactivity
38 | QVQLVESGGGLVQAGGRLRLSCADSGSTFLYNAMGWYRQAPGKERELVAAITSDGSTSYADSVKGRFTISRDNAKNTVYLQMNSLKPEDTALYYSAAYGFQHLSSLPFSRHNYWGQGTQVTVSS | low polyreactivity
39 | QVQLVESGGGLVQAGGRLRLSCADSGSTFWSYAIGWYRQSPGKEREFVAAISSSDDSTYYADSVKGRFTISRDNAKNTVYLQMNSLKPEDTAVYYCATSWYIYPFDYWGQGTQVTVSS | low polyreactivity
40 | QVQLVESGGGLVQAGGRLRLSCAPSGLIFYGYAMGWYRQAPGKERELVAAISGSGGRTYYADSVKGRYTISRDNAKNTVYLEMNSLKPEDSAVYYCAGKVPRFGAPGVNYWGQGTQVTVSS | high polyreactivity
41 | QVQLVESGGGLVQAGGRLRLSCPASGLIFSYYAMGWYRQEPGKERELVAAISRGGSTNYADSVKGRFTISRDNAKNTVYLQMNSLKPEDTAVYYCAARFVLRRDYGYWGQGTQVTVSS | high polyreactivity
42 | QVQLVESGGGLVQAGGRLRLSCPASGRTFPPYAMGWYRQAPGKERELVGAISRRAGTTYYADSVKGRFTISRDNAKNTVYLQMNSLKPEDTAVYYCAALTESSSYGYWGLGTQVTVSS | low polyreactivity
43 | QVQLVESGGGLVQAGGRLRLSSAASGFIFAYNAMGWYRQGPGKERELVASIRTRGGSTYYADSVKGRFTISRDNAKNTVYLQMNSLKPEDTSVYYCAARPFPRRYDYWGQGSQVTVSS | low polyreactivity
